In paper PMC3056663, “A Bi-Functional Anti-Thrombosis Protein Containing Both Direct-Acting Fibrin(ogen)olytic and Plasminogen-Activating Activities” (PLoS ONE, 2011) one finds Km, Vmax and kcat/Km data, which are given here for 2 proteins.

Substrate in this series: N=C(N)NCCC[C@H](NC(=O)c1ccccc1)C(=O)Nc1ccc([N+](=O)[O-])cc1
Kind of series: purified protein. The series is classed as biochemical, Eupolyphaga sinensis. The settings on record: 50 mM Tris-HCl, pH 7.8, 37°C.

B1: native eupolytin1 (NE) (Eupolyphaga sinensis) (protein)
chain: RIVGGSDANIEDLPYQLSFEYGGSHMCGASIISENWVVTAAHCVDGVSASSARFRAGSSVRGSGGSLHQATQLIANPQYDYYTIDYDVAVARVATPFSYGSGVQPISLISVEPSAGQTATVSGWGTFFSGGSLPRQLQVVSVPIVSPQQCNNDYASYGGITENMICAAEEQGGKDPCQGDSSGPLTVGGQLAGIVSWGAGCAQRGYPGVYSNVATLRKFITDETGVN
notes: mature protein of 227 residues, 27-residue signal peptide removed (precursor 254); purified natively from mid-gut; 26 kDa on SDS-PAGE
As for B1, the Km (commonly the concentration of substrate that gives half-maximal velocity) stood at 3.24 mM; the Vmax (in general, the rate approached at saturating substrate) stood at 63000 µM/min; the kcat/Km (as a rule, the second-order rate constant that governs catalysis at low substrate concentration) was 1e+07 M⁻¹ s⁻¹.

B2: recombinant eupolytin1 (RE) (Eupolyphaga sinensis) (protein)
chain: IVGGSDANIEDLPYQLSFEYGGSHMCGASIISENWVVTAAHCVDGVSASSARFRAGSSVRGSGGSLHQATQLIANPQYDYYTIDYDVAVARVATPFSYGSGVQPISLISVEPSAGQTATVSGWGTFFSGGSLPRQLQVVSVPIVSPQQCNNDYASYGGITENMICAAEEQGGKDPCQGDSSGPLTVGGQLAGIVSWGAGCAQRGYPGVYSNVATLRKFITDETGVN
notes: tag released by enterokinase; primer encodes DDDDK-IVGG at the cleavage site; Mono Q purified
For the protein B2, the Km is reported as 3.01 mM, the Vmax was 67200 µM/min and the kcat/Km worked out at 8e+06 M⁻¹ s⁻¹.
